# Experimental data reported in article PMC5501724, “Structural Basis for Specific Interaction of TGFβ Signaling Regulators SARA/Endofin with HD-PTP” (Structure(London, England:1993), 2017).
# B1: endofin 22-mer peptide (first 22 residues of endofin) [human] / His6-HD-PTP_(Bro1-CC) (1-714), bacterially expressed [human] (parent complex)
# chain 1: MDSYFKAAVSDLDKLLDDFEQN
# chain 2: MEAVPRMPMIWLDLKEAGDFHFQPAVKKFVLKNYGENPEAYNEELKKLELLRQNAVRVPRDFEGCSVLRKYLGQLHYLQSRVPMGSGQEAAVPVTWTEIFSGKSVAHEDIKYEQACILYNLGALHSMLGAMDKRVSEEGMKVSCTHFQCAAGAFAYLREHFPQAYSVDMSRQILTLNVNLMLGQAQECLLEKSMLDNRKSFLVARISAQVVDYYKEACRALENPDTASLLGRIQKDWKKLVQMKIYYFAAVAHLHMGKQAEEQQKFGERVAYFQSALDKLNEAIKLAKGQPDTVQDALRFTMDVIGGKYNSAKKDNDFIYHEAVPALDTLQPVKGAPLVKPLPVNPTDPAVTGPDIFAKLVPMAAHEASSLYSEEKAKLLREMMAKIEDKNEVLDQFMDSMQLDPETVDNLDAYSHIPPQLMEKCAALSVRPDTVRNLVQSMQVLSGVFTDVEASLKDIRDLLEEDELLEQKFQEAVGQAGAISITSKAELAEVRREWAKYMEVHEKASFTNSELHRAMNLHVGNLRLLSGPLDQVRAALPTPALSPEDKAVLQNLKRILAKVQEMRDQRVSLEQQLRELIQKDDITASLVTTDHSEMKKLFEEQLKKYDQLKVYLEQNLAAQDRVLCALTEANVQYAAVRRVLSDLDQKWNSTLQTLVASYEAYEDLMKKSQEGRDFYADLESKVAALLERTQSTCQAREAARQQLLDRELKK
# B2: HA-HD-PTP_(Bro1-CC) wild-type, expressed in cells [human] / endogenous endofin [human (endogenous in HEK293)] (parent complex)
# chain 1: B1 chain 2
# chain 2: MDSYFKAAVSDLDKLLDDFEQNPDEQDYLQDVQNAYDSNHCSVSSELASSQRTSLLPKDQECVNSCASSETSYGTNESSLNEKTLKGLTSIQNEKNVTGLDLLSSVDGGTSDEIQPLYMGRCSKPICDLISDMGNLVHATNSEEDIKKLLPDDFKSNADSLIGLDLSSVSDTPCVSSTDHDSDTVREQQNDISSELQNREIGGIKELGIKVDTTLSDSYNYSGTENLKDKKIFNQLESIVDFNMSSALTRQSSKMFHAKDKLQHKSQPCGLLKDVGLVKEEVDVAVITAAECLKEEGKTSALTCSLPKNEDLCLNDSNSRDENFKLPDFSFQEDKTVIKQSAQEDSKSLDLKDNDVIQDSSSALHVSSKDVPSSLSCLPASGSMCGSLIESKARGDFLPQHEHKDNIQDAVTIHEEIQNSVVLGGEPFKENDLLKQEKCKSILLQSLIEGMEDRKIDPDQTVIRAESLDGGDTSSTVVESQEGLSGTHVPESSDCCEGFINTFSSNDMDGQDLDYFNIDEGAKSGPLISDAELDAFLTEQYLQTTNIKSFEENVNDSKSQMNQIDMKGLDDGNINNIYFNAEAGAIGESHGINIICEIVDKQNTIENGLSLGEKSTIPVQQGLPTSKSEITNQLSVSDINSQSVGGARPKQLFSLPSRTRSSKDLNKPDVPDTIESEPSTADTVVPITCAIDSTADPQVSFNSNYIDIESNSEGGSSFVTANEDSVPENTCKEGLVLGQKQPTWVPDSEAPNCMNCQVKFTFTKRRHHCRACGKVFCGVCCNRKCKLQYLEKEARVCVVCYETISKAQAFERMMSPTGSNLKSNHSDECTTVQPPQENQTSSIPSPATLPVSALKQPGVEGLCSKEQKRVWFADGILPNGEVADTTKLSSGSKRCSEDFSPLSPDVPMTVNTVDHSHSTTVEKPNNETGDITRNEIIQSPISQVPSVEKLSMNTGNEGLPTSGSFTLDDDVFAETEEPSSPTGVLVNSNLPIASISDYRLLCDINKYVCNKISLLPNDEDSLPPLLVASGEKGSVPVVEEHPSHEQIILLLEGESFHPVTFVLNANLLVNVKFIFYSSDKYWYFSTNGLHGLGQAEIIILLLCLPNEDTIPKDIFRLFITIYKDALKGKYIENLDNITFTESFLSSKDHGGFLFITPTFQKLDDLSLPSNPFLCGILIQKLEIPWAKVFPMRLMLRLGAEYKAYPAPLTSIRGRKPLFGEIGHTIMNLLVDLRNYQYTLHNIDQLLIHMEMGKSCIKIPRKKYSDVMKVLNSSNEHVISIGASFSTEADSHLVCIQNDGIYETQANSATGHPRKVTGASFVVFNGALKTSSGFLAKSSIVEDGLMVQITPETMNGLRLALREQKDFKITCGKVDAVDLREYVDICWVDAEEKGNKGVISSVDGISLQGFPSEKIKLEADFETDEKIVKCTEVFYFLKDQDLSILSTSYQFAKEIAMACSAALCPHLKTLKSNGMNKIGLRVSIDTDMVEFQAGSEGQLLPQHYLNDLDSALIPVIHGGTSNSSLPLEIELVFFIIEHLF
# B3: endofin_(1–84)-strep, in vitro translated [modified: 35S-methionine; 35S-methionine] [human] / His6-HD-PTP_(Bro1-CC) (1-714), bacterially expressed [human] (parent complex)
# chain 1: MDSYFKAAVSDLDKLLDDFEQNPDEQDYLQDVQNAYDSNHCSVSSELASSQRTSLLPKDQECVNSCASSETSYGTNESSLNEKT
# chain 2: B1 chain 2
# B4: endofin 22-mer peptide (first 22 residues of endofin) [human] / His6-HD-PTP_(Bro1) (1-361) [human] (parent complex)
# chain 1: MDSYFKAAVSDLDKLLDDFEQN
# chain 2: MEAVPRMPMIWLDLKEAGDFHFQPAVKKFVLKNYGENPEAYNEELKKLELLRQNAVRVPRDFEGCSVLRKYLGQLHYLQSRVPMGSGQEAAVPVTWTEIFSGKSVAHEDIKYEQACILYNLGALHSMLGAMDKRVSEEGMKVSCTHFQCAAGAFAYLREHFPQAYSVDMSRQILTLNVNLMLGQAQECLLEKSMLDNRKSFLVARISAQVVDYYKEACRALENPDTASLLGRIQKDWKKLVQMKIYYFAAVAHLHMGKQAEEQQKFGERVAYFQSALDKLNEAIKLAKGQPDTVQDALRFTMDVIGGKYNSAKKDNDFIYHEAVPALDTLQPVKGAPLVKPLPVNPTDPAVTGPDIFAKLV
# Variants of: B1
# Test: biosensor binding (sensogram); parent: 80; read off a plot
row,response [RU],Variant
1,~0,chain 1 L15P

# Variants of: B2
# Test: anti-HA immunoprecipitation from cells, anti-endofin immunoblot, quantitation; four independent experiments (mean ± SD); parent: 100; read off a plot
row,percent of parent,Variant
1,~23 % of WT,chain 1 H125A
2,~59 % of WT,chain 1 R198M
3,~30 % of WT,chain 1 F62E
4,~13 % of WT,chain 1 T145K
5,~9.5 % of WT,chain 1 L202D
6,~68 % of WT,chain 1 R69L

# Variants of: B3
# Test: co-immunoprecipitation with anti-His6 antibody, quantitation of blots; three independent experiments (mean ± SD); parent: 100; read off a plot
row,percent of parent,Variant
1,~6 % binding (rel. to WT),chain 1 L15P

# Variants of: B4
# Test: biosensor binding (sensogram); parent: 110; read off a plot
row,response [RU],Variant
1,~0,chain 1 L15P
